From publication PMC9482650, “Quantitative fragmentomics allow affinity mapping of interactomes” (Nature Communications, 2022)
Where a chain is given by its changes, count along the chain named.

T1: APBA1_2, Q02410
T1 sequence (Q02410 742-832, limits assumed, looked up): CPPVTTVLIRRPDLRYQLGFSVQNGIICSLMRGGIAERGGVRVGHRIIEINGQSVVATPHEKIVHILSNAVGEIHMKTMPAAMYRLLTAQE

T2: TJP3_3, O95049
T2 sequence (O95049 375-456, limits assumed, looked up): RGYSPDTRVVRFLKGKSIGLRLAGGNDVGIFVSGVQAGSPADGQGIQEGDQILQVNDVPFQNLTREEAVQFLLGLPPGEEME

T3: LIN7A, O14910
T3 sequence (O14910 103-200, limits assumed, looked up): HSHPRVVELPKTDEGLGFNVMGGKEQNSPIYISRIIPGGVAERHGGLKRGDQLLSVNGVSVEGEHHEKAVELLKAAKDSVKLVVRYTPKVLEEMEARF

T4: GRIP1_5, Q9Y3R0
T4 sequence (Q9Y3R0 568-668, limits assumed, looked up): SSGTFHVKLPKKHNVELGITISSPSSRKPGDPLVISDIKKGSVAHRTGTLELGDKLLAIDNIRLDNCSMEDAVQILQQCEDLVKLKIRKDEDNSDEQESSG

T5: PARD3B_1, Q8TEW8
T5 sequence (Q8TEW8 196-299, limits assumed, looked up): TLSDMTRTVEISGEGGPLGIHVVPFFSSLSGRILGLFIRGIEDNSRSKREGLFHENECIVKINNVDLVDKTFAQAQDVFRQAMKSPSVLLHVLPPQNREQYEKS

T6: RADIL, Q96JH8
T6 sequence (Q96JH8 971-1071, limits assumed, looked up): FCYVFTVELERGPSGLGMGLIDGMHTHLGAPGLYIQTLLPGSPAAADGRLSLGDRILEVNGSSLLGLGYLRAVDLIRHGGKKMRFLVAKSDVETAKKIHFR

T7: SYNJ2BP, P57105
T7 sequence (P57105 8-110, limits assumed, looked up): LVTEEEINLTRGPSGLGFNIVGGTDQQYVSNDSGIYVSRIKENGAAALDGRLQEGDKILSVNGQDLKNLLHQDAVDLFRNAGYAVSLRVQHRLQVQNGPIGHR

T8: SHANK1, Q9Y566
T8 sequence (Q9Y566 658-767, limits assumed, looked up): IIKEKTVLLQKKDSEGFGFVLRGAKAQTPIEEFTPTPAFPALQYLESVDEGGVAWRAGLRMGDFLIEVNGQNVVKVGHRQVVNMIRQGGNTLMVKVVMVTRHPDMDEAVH

T9: DLG3_1, Q92796
T9 sequence (Q92796 125-227, limits assumed, looked up): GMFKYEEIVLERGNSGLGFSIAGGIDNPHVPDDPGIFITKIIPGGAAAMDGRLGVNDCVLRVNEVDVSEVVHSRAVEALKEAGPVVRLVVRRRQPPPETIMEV

T10: LIN7C, Q9NUP9
T10 sequence (Q9NUP9 88-185, limits assumed, looked up): T3 sequence (O14910 103-200, limits assumed, looked up) with D13E, V20I, V40I, E42D, K77Q, D78G, S79K, A96S

B1: AQP3, Q92482 (peptide)
chain: LAHVKHKEQI
B2: SRC, P12931 (peptide)
chain: EPQYQPGENL
B3: KIRREL1, Q96J84 (peptide)
chain: RFQQRMQTHV

Target: Inadl_1, Q8NI35
Assay: holdup assay
Parameters: key: below the threshold = too weak to quantify, mostly under pKd 3.1 to 4
Details: plain residues with an end cap or a label only (N-terminal biotin on a linker: ado-ado)

Sequence of Inadl_1, Q8NI35 (Q8NI35 113-229): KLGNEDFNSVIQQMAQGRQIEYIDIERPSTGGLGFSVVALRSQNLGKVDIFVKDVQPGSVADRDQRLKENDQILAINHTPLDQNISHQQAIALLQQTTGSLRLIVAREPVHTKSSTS

pKd | Binder
below the threshold | B1
below the threshold | B2
below the threshold | B3

Target: GRIP2_3, Q9C0E4
Assay: holdup assay
Parameters: key: below the threshold = too weak to quantify, mostly under pKd 3.1 to 4
Details: plain residues with an end cap or a label only (N-terminal biotin on a linker: ado-ado)

Sequence of GRIP2_3, Q9C0E4 (Q9C0E4 238-339): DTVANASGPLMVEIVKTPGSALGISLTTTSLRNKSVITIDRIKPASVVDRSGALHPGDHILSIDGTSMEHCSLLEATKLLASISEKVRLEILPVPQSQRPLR

pKd | Binder
below the threshold | B1
below the threshold | B2
below the threshold | B3

Target: MAST1, Q9Y2H9
Assay: holdup assay
Parameters: key: below the threshold = too weak to quantify, mostly under pKd 3.1 to 4
Details: plain residues with an end cap or a label only (N-terminal biotin on a linker: ado-ado)

Sequence of MAST1, Q9Y2H9 (Q9Y2H9 962-1065): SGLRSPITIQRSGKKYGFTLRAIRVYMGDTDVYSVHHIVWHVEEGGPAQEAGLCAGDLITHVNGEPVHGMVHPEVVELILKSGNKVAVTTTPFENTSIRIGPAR

pKd | Binder
below the threshold | B1
4.18 | B2
4.76 | B3

Target: T1, APBA1_2, Q02410
Assay: holdup assay
Parameters: key: below the threshold = too weak to quantify, mostly under pKd 3.1 to 4
Details: plain residues with an end cap or a label only (N-terminal biotin on a linker: ado-ado)

pKd | Binder
below the threshold | B1
3.59 | B2
3.92 | B3

Target: T2, TJP3_3, O95049
Assay: holdup assay
Parameters: key: below the threshold = too weak to quantify, mostly under pKd 3.1 to 4
Details: plain residues with an end cap or a label only (N-terminal biotin on a linker: ado-ado)

pKd | Binder
below the threshold | B1
below the threshold | B2
below the threshold | B3

Target: T3, LIN7A, O14910
Assay: holdup assay
Parameters: key: below the threshold = too weak to quantify, mostly under pKd 3.1 to 4
Details: plain residues with an end cap or a label only (N-terminal biotin on a linker: ado-ado)

pKd | Binder
below the threshold | B1
below the threshold | B2
below the threshold | B3

Target: DLG1_1, Q12959
Assay: holdup assay
Parameters: key: below the threshold = too weak to quantify, mostly under pKd 3.1 to 4
Details: plain residues with an end cap or a label only (N-terminal biotin on a linker: ado-ado)

pKd | Binder
below the threshold | B1
below the threshold | B2
4.17 | B3

Target: MAGI1_2, Q96QZ7
Assay: holdup assay
Parameters: key: below the threshold = too weak to quantify, mostly under pKd 3.1 to 4
Details: plain residues with an end cap or a label only (N-terminal biotin on a linker: ado-ado)

Sequence of MAGI1_2, Q96QZ7 (Q96QZ7 456-580): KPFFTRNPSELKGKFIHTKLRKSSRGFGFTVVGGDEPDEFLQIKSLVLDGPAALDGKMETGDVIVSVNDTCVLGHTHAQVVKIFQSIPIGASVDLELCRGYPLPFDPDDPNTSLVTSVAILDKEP

pKd | Binder
below the threshold | B1
below the threshold | B2
5.41 | B3

Target: DLG2_2, Q15700
Assay: holdup assay
Parameters: key: below the threshold = too weak to quantify, mostly under pKd 3.1 to 4
Details: plain residues with an end cap or a label only (N-terminal biotin on a linker: ado-ado)

Sequence of DLG2_2, Q15700 (Q15700 189-283): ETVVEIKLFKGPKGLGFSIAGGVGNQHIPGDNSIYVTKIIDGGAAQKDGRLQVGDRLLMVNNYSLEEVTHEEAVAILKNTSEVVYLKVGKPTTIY

pKd | Binder
below the threshold | B1
below the threshold | B2
4.44 | B3

Target: AHNAK1, Q09666
Assay: holdup assay
Parameters: key: below the threshold = too weak to quantify, mostly under pKd 3.1 to 4
Details: plain residues with an end cap or a label only (N-terminal biotin on a linker: ado-ado)

Sequence of AHNAK1, Q09666 (Q09666 4-100): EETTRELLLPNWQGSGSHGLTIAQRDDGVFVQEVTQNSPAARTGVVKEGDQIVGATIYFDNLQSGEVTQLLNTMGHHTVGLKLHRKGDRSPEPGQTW

pKd | Binder
below the threshold | B1
below the threshold | B2
below the threshold | B3

Target: T4, GRIP1_5, Q9Y3R0
Assay: holdup assay
Parameters: key: below the threshold = too weak to quantify, mostly under pKd 3.1 to 4
Details: plain residues with an end cap or a label only (N-terminal biotin on a linker: ado-ado)

pKd | Binder
below the threshold | B1
below the threshold | B2
below the threshold | B3

Target: MAGI2_5, Q86UL8
Assay: holdup assay
Parameters: key: below the threshold = too weak to quantify, mostly under pKd 3.1 to 4
Details: plain residues with an end cap or a label only (N-terminal biotin on a linker: ado-ado)

Sequence of MAGI2_5, Q86UL8 (Q86UL8 915-1017): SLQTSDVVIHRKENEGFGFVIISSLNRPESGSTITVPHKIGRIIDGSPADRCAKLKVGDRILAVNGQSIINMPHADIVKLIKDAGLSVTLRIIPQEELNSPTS

pKd | Binder
below the threshold | B1
below the threshold | B2
3.74 | B3

Target: PTPN3, P26045
Assay: holdup assay
Parameters: key: below the threshold = too weak to quantify, mostly under pKd 3.1 to 4
Details: plain residues with an end cap or a label only (N-terminal biotin on a linker: ado-ado)

Sequence of PTPN3, P26045 (P26045 505-587): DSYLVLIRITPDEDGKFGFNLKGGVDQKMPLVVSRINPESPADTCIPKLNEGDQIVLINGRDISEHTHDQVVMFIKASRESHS

pKd | Binder
below the threshold | B1
below the threshold | B2
4.2 | B3

Target: GORASP1, Q9BQQ3
Assay: holdup assay
Parameters: key: below the threshold = too weak to quantify, mostly under pKd 3.1 to 4
Details: plain residues with an end cap or a label only (N-terminal biotin on a linker: ado-ado)

Sequence of GORASP1, Q9BQQ3 (Q9BQQ3 1-208): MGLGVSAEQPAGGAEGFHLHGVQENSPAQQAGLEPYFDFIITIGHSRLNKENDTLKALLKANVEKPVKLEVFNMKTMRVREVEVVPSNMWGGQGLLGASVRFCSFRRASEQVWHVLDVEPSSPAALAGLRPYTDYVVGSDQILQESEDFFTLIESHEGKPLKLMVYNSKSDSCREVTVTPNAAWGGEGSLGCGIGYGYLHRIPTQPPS

pKd | Binder
below the threshold | B1
below the threshold | B2
below the threshold | B3

Target: T5, PARD3B_1, Q8TEW8
Assay: holdup assay
Parameters: key: below the threshold = too weak to quantify, mostly under pKd 3.1 to 4
Details: plain residues with an end cap or a label only (N-terminal biotin on a linker: ado-ado)

pKd | Binder
below the threshold | B1
3.91 | B2
below the threshold | B3

Target: T6, RADIL, Q96JH8
Assay: holdup assay
Parameters: key: below the threshold = too weak to quantify, mostly under pKd 3.1 to 4
Details: plain residues with an end cap or a label only (N-terminal biotin on a linker: ado-ado)

pKd | Binder
below the threshold | B1
below the threshold | B2
3.9 | B3

Target: T7, SYNJ2BP, P57105
Assay: holdup assay
Parameters: key: below the threshold = too weak to quantify, mostly under pKd 3.1 to 4
Details: plain residues with an end cap or a label only (N-terminal biotin on a linker: ado-ado)

pKd | Binder
below the threshold | B1
below the threshold | B2
4.61 | B3

Target: T8, SHANK1, Q9Y566
Assay: holdup assay
Parameters: key: below the threshold = too weak to quantify, mostly under pKd 3.1 to 4
Details: plain residues with an end cap or a label only (N-terminal biotin on a linker: ado-ado)

pKd | Binder
below the threshold | B1
below the threshold | B2
4.16 | B3

Target: HTRA2, O43464
Assay: holdup assay
Parameters: key: below the threshold = too weak to quantify, mostly under pKd 3.1 to 4
Details: plain residues with an end cap or a label only (N-terminal biotin on a linker: ado-ado)

Sequence of HTRA2, O43464 (O43464 355-458): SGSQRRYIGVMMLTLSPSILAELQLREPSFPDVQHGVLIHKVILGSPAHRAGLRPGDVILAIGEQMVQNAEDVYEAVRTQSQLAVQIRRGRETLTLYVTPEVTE

pKd | Binder
below the threshold | B1
3.53 | B2
below the threshold | B3

Target: Inadl_2, Q8NI35
Assay: holdup assay
Parameters: key: below the threshold = too weak to quantify, mostly under pKd 3.1 to 4
Details: plain residues with an end cap or a label only (N-terminal biotin on a linker: ado-ado)

Sequence of Inadl_2, Q8NI35 (Q8NI35 238-335): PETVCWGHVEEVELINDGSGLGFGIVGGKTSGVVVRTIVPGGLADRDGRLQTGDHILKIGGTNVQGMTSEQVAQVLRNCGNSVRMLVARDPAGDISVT

pKd | Binder
below the threshold | B1
below the threshold | B2
below the threshold | B3

Target: NHERF2_2, Q15599
Assay: holdup assay
Parameters: key: below the threshold = too weak to quantify, mostly under pKd 3.1 to 4
Details: plain residues with an end cap or a label only (N-terminal biotin on a linker: ado-ado)

Sequence of NHERF2_2, Q15599 (Q15599 142-238): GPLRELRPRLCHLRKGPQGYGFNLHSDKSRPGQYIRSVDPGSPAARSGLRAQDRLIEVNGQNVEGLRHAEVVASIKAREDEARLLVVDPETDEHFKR

pKd | Binder
below the threshold | B1
3.77 | B2
3.57 | B3

Target: DLG4_2, P78352
Assay: holdup assay
Parameters: key: below the threshold = too weak to quantify, mostly under pKd 3.1 to 4
Details: plain residues with an end cap or a label only (N-terminal biotin on a linker: ado-ado)

Sequence of DLG4_2, P78352 (P78352 155-259): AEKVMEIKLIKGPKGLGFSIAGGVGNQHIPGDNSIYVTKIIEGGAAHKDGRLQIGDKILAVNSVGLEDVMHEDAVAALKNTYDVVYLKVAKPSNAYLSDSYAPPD

pKd | Binder
below the threshold | B1
below the threshold | B2
4.64 | B3

Target: MAGI1_1, Q96QZ7
Assay: holdup assay
Parameters: key: below the threshold = too weak to quantify, mostly under pKd 3.1 to 4
Details: plain residues with an end cap or a label only (N-terminal biotin on a linker: ado-ado)

Sequence of MAGI1_1, Q96QZ7 (Q96QZ7 1-106): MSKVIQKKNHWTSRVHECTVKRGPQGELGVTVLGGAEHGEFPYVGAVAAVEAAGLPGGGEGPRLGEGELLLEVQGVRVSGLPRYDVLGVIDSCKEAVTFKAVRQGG

pKd | Binder
below the threshold | B1
below the threshold | B2
below the threshold | B3

Target: Inadl_9, Q8NI35
Assay: holdup assay
Parameters: key: below the threshold = too weak to quantify, mostly under pKd 3.1 to 4
Details: plain residues with an end cap or a label only (N-terminal biotin on a linker: ado-ado)

Sequence of Inadl_9, Q8NI35 (Q8NI35 1530-1615): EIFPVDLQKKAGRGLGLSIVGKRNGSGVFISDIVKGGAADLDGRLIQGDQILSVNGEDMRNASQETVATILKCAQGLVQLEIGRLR

pKd | Binder
below the threshold | B1
below the threshold | B2
below the threshold | B3

Target: T9, DLG3_1, Q92796
Assay: holdup assay
Parameters: key: below the threshold = too weak to quantify, mostly under pKd 3.1 to 4
Details: plain residues with an end cap or a label only (N-terminal biotin on a linker: ado-ado)

pKd | Binder
below the threshold | B1
below the threshold | B2
3.57 | B3

Target: PARD3_3, Q8TEW0
Assay: holdup assay
Parameters: key: below the threshold = too weak to quantify, mostly under pKd 3.1 to 4
Details: plain residues with an end cap or a label only (N-terminal biotin on a linker: ado-ado)

Sequence of PARD3_3, Q8TEW0 (Q8TEW0 582-685): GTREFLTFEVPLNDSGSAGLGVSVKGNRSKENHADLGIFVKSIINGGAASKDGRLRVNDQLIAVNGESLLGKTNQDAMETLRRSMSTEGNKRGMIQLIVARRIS

pKd | Binder
below the threshold | B1
3.6 | B2
below the threshold | B3

Target: T10, LIN7C, Q9NUP9
Assay: holdup assay
Parameters: key: below the threshold = too weak to quantify, mostly under pKd 3.1 to 4
Details: plain residues with an end cap or a label only (N-terminal biotin on a linker: ado-ado)

pKd | Binder
below the threshold | B1
below the threshold | B2
3.69 | B3
